Here are results for one protein from publication PMC10164138 (Structure (London, England : 1993), 2023).

The series concerns the molecule itself. Kind of series: cryo-EM structure.

B1: CfaB, major pilin subunit of CFA/I pili (natural protein, enterotoxigenic Escherichia coli (ETEC), UniProt P0CK93 24-170, looked up)
chain: VEKNITVTASVDPAIDLLQADGNALPSAVKLAYSPASKTFESYRVMTQVHTNDATKKVIVKLADTPQLTDVLNSTVQMPISVSWGGQVLSTTAKEFEAAALGYSASGVNGVSSSQELVISAAPKTAGTAPTAGNYSGVVSLVMTLGS
For B1, the binding result is reported as “binds”.
